# From the supplement of paper PMC12764529
# ± gives the half width of the 95% confidence interval.
# Assay: folding stability dG unfold (combined trypsin and chymotrypsin); higher = more stable
# Method in brief: (§1)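 Sequencing followed digestion of designed mini-proteins with trypsin and chymotrypsin, each at 11 concentrations in threefold dilutions together with a no-protease condition. The mini-proteins were under 80 residues, had no cysteine, sat in a PA-tagged cDNA display construct, and were kept only if AlphaFold2 dimer inter-PAE was above 15. From the counts, Bayesian fitting gave K50, and unfolding free energy was derived against a sequence-predicted unfolded-state K50 and a shared folded-state K50, per protease or combined.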
row,Sequence,folding stability dG unfold
1,SAGGSAGGSAGGDKKDPGQPRQEVEIEIPVYDPNGKPKGPIEITMPAGQSLDEIADEIFNSAGGSAGGSAGG [r7_110_TrROS],0.937 ± 0.13 kcal/mol
2,SAGGSAGGSPVVLYEVDPSTNSVTLTVEVLHPDGTPLRKEYTTNGDPLEAALRFAKAVLEEAGSAGGSAGGS [r20_33_TrMRF],0.699 ± 0.12 kcal/mol
3,SAGGSADSVTFTDPNVEEQIVIPPYVIFKYPDGSVRIIAFDDGDKAEILEEIPFVPPLEPLHPDLESAGGSA [r15_393_TrMRF],1.06 ± 0.17 kcal/mol
4,SAGGSAGGSKEFKVEEVGGRLYITFPDGTVVEVRFDKPVTFDLKTGKLYFPEGAEVEKRRLKESAGGSAGGS [r20_158_TrROS_Hall],0.905 ± 0.26 kcal/mol
5,SGSSYLPLEDVKTEWKKNPNSDVYNYTTFLQTPSGEPISVTYDPKTGKITFNLPPGTTWRPGKKSEVKLESA [r9_509_JUSTAS],0.864 ± 0.16 kcal/mol
6,SAGGSAGGSAAPVVREIEIDLPYPDGSPLTVEKVTEEPAPGTVHYEIKLPDGTVITRTVPTFSAGGSAGGSA [r18_370_JUSTAS],-0.797 ± 0.24 kcal/mol
7,SAGGSAGEIEGEEAAKLVEDALRALDPNVRVEYEPLPGEKPLLLVRVYRVDPESGAETPLATLLIGSAGGSA [r15_682_TrMRF],2.4 ± 0.077 kcal/mol
8,SAGGSAGGSAGKLPPGAKVEEVFEVEIEVTYLNPDTGEEVEKEKITVRVVKVDGKLVIEFSAGGSAGGSAGG [r11_415_TrROS_Hall],2.04 ± 0.25 kcal/mol
9,SAGGEEVKTIKVTLAFYNPETGELVAEVEATATLVDGKLVLTTTVTFRPAPAGEPVTVTVTVVEPEESAGGS [r16_327_TrROS_Hall],3.39 ± 0.24 kcal/mol
10,SAGGALILLFPHPESRTVTALFVHPDGGSETIPFPVPESIDSLEEVADRLLREARERFPVPVEVVVASAGGS [r8_166_TrMRF],1.2 ± 0.038 kcal/mol
11,SAGGSAGGSAGPRIVAFNVPNGKTIPLFAPDGWMIRINIERDPKDGEHKMETEYVPADDISAGGSAGGSAGG [r17_287_TrROS],-0.419 ± 0.29 kcal/mol
12,SAGGPRVEPLPLRVTYEDGVPPREVTVPLLAVTALDPETGEPVTFVNPGSLEVLAALLPPSVVSFDFSAGGS [r16_522_TrMRF],0.755 ± 0.05 kcal/mol
13,SAGKRMPVEEIANELAKEFPPGQTREVPIRNEDGGEWITLTVYHPNGKPVWKITIRPDGEIEVEWVPLSAGG [r19_0_TrROS],1.94 ± 0.088 kcal/mol
14,SAGGSVPERAKVVTLVLRFEEPESLGIPLLERLLRELGFPDAVLGEVRIEPLPDGSVVAVVPLLVPSAGGSA [r2_346_TrMRF],2.91 ± 0.059 kcal/mol
15,SAGGSAGGSAGGASLKVVEREVEYYDPETGETVRVKALVTVDPNSDKEILDPEEKEKLLSSAGGSAGGSAGG [r7_557_JUSTAS],0.907 ± 0.087 kcal/mol
16,SAGGEVLVIELSLEELKNLKPNQTVKIKLPDGSELEVRVEEVDGRLYLFVRNKENPEEVELIEEITIESAGG [r13_745_TrROS_Hall],3.3 ± 0.065 kcal/mol
17,SAGSVETFEDPEVGRVVIVPLPGGEVLTIELPPDSITMTLTSPKGGESVTITKKMKPGEEEELIKELASSAG [r5_820_JUSTAS],-0.358 ± 0.3 kcal/mol
18,SPKVTLTLEGKVITFPAPLAEKLLGELQRKGYKVKILSVEPDPETDEIYLVMEVEPLKPPPLPPPNPLLESA [r9_448_TrMRF],2.05 ± 0.35 kcal/mol
19,SAGGSAGGSMPVKRELIITVTEPSSGTTRTLVVEVETEEEAEAVVAAVAAVPDRTVTEVRRLASAGGSAGGS [r12_152_JUSTAS],0.926 ± 0.057 kcal/mol
20,SAGGGMTPVKKEYVVTLPVPPGMTEEEARELAERAAEELRPELEAKGLAYEVTFELSPEGLVTVTVVASAGG [r13_529_JUSTAS],2.31 ± 0.034 kcal/mol
21,SAGGSAGGDEKAKEELKKKKPPKIELTVKVEVEVSEDGTVKVKAKVFGPDGKLIAEAEFTFKVKSAGGSAGG [r6_419_TrROS_Hall],2.58 ± 0.38 kcal/mol

row,Sequence,folding stability dG unfold
1,SAGGSAGGSAGIGSKKPVIKKNIEIEPEIKVEGGKGGSKVKIEYKAKIEIKVYIISKNNPSAGGSAGGSAGG [r17_186_TrMRF],1.98 ± 0.4 kcal/mol
2,SAGGSAMFYLLKVELPDGKVLEIRIEATPEEKEEFVEKIKSHPEVKSVELEPISKEEAEELGFEEISAGGSA [r15_39_TrMRF],3.08 ± 0.12 kcal/mol
3,SAGGSAGGSAGMPKRKITKIETEELPPELIRVTITLPDGTPVPVVVSPDDEEVKAIIEKLSAGGSAGGSAGG [r11_122_JUSTAS],0.311 ± 0.24 kcal/mol
4,SAGTAKELAELLPGATVEVDEETGTVTVTVELDGYTVRIEIRVDPETGEIVEIRITVTNPDGEEREFELSAG [r5_367_TrROS_Hall],2.94 ± 0.062 kcal/mol
5,SAGGSAGGSAGGMKITKVEVFERPDGYLVVKMEIELTNENGEKVKLELVFVFKPGEVIESAGGSAGGSAGGS [r10_1183_TrROS_Hall],4.72 ± 0.31 kcal/mol
6,SAGGSAGGDALKELIKNMPPGEPRKITIPIKYEDGRYYRIDIEIQMNPNNGEWQLDIDIEPYPPSAGGSAGG [r6_545_TrROS],1.91 ± 0.25 kcal/mol
7,SAGEKEVIEIEVRVTVVRRLPEDLSEEQRKALEDELEVEEVTVRVRFDLDTGRIYVEFEDGSRLEFELPSAG [r5_701_TrROS_Hall],3.16 ± 0.1 kcal/mol
8,SAGGMMKLELEIEKEDGKKYKIEVEYNKEEPVLKIKIYDKNGKKIKEIEIKAKSLEEALEAAKKLLKSAGGS [r16_158_TrROS_Hall],3.68 ± 0.22 kcal/mol
9,SMAKVTGYPDIFLVTIYKDGEEKTIPVNFEELVELLKKGVKKVEFTTDNPEFAEKFYKLVKSLGVPVNLKSA [r9_810_TrMRF],2.33 ± 0.044 kcal/mol
10,SAGGSASVVLPNATVEELKEAVEKGAKEIVVVSPDPARAATIKAEIEKLHDTPVKVLTPEEAAALESAGGSA [r15_243_JUSTAS],0.907 ± 0.055 kcal/mol
11,SAGGSAGGSAEVFIVKFSDPAKLKAFMEKLGLSYEKGDNPKITNPEEFLKNLPLVKNVVVTKKSAGGSAGGS [r12_571_JUSTAS],0.423 ± 0.057 kcal/mol
12,SAGGSAGGSEVLEVVLPRPDGRLVLLRVDPEGRLALVVFPDGSVRVFEVESPEEAVQRVLDAESAGGSAGGS [r12_866_TrMRF],2.41 ± 0.07 kcal/mol
13,SAGGSTIENPNGWRIEIDIIPIKVVYRKDPNGKPKEPVAPPVWIIHIKIEFPDKNGEKKEATFMLFSAGGSA [r2_218_TrROS],4.06 ± 0.13 kcal/mol
14,SAGGSAGGMEVVELTVDELRALLPPGAVLLVYNRKTRKLYEIPVEELEALLKPGDKVRVVVLPPSAGGSAGG [r6_893_TrROS_Hall],4.17 ± 0.25 kcal/mol
15,SAGGSAPMFEIWFRDPEAIEKLLEESGFPVSIERFPNDPNWVKITIFMKGPMEEAQDKLREALGLESAGGSA [r15_118_TrROS],2.74 ± 0.036 kcal/mol
16,SKKKVTIEIEIVVRVPEGDELKNMTAEELAALLAEELGVEVEIVEVELVEYDEETGEYYVRIKVKITFPESA [r9_107_TrROS_Hall],2.76 ± 0.14 kcal/mol
17,SAKTVTLKVTLEIEINGVRVKVEATLTLELDENGELKLTLELKIEIEPAPPPKEVKLTEEEKKKLEELKSAG [r14_442_TrROS_Hall],3.25 ± 0.69 kcal/mol
18,SAGGSADDVKIKVEYERNPENGYGQITVEVEDPDGKDLKVEIMFPNMTPEEMEKQAKDIAKEIAKKSAGGSA [r15_526_TrROS],0.719 ± 0.23 kcal/mol
19,SMKPGDWKWIMFRFPDAENMEITIPIPLPPGYRVWFFFMNGERHEIPAGQEIKFKMPPGEPMWMMIWIWKSA [r9_79_TrROS],4.06 ± 0.26 kcal/mol
20,SAGKPKVKVETVTIEVDGKKIKIEVVELENGEKLVRVEVFDENGELVETKTVTLEELKKLLEKAGIEVSAGG [r19_90_TrROS_Hall],1.84 ± 0.28 kcal/mol
21,SAGGSAGGSMTITYDPVSNTYTVNLSLEGGTKTYTVPSLEALKATLKAEGLPWGPPPITTVSASAGGSAGGS [r12_834_JUSTAS],4.96 ± 0.079 kcal/mol

# Assay: folding stability dG unfold from trypsin proteolysis; higher = more stable
# Method in brief: as §1
row,Sequence,folding stability dG unfold
1,SAGGSAGGSAGGDKKDPGQPRQEVEIEIPVYDPNGKPKGPIEITMPAGQSLDEIADEIFNSAGGSAGGSAGG [r7_110_TrROS],0.758 ± 0.068 kcal/mol
2,SAGGSAGGSPVVLYEVDPSTNSVTLTVEVLHPDGTPLRKEYTTNGDPLEAALRFAKAVLEEAGSAGGSAGGS [r20_33_TrMRF],0.407 ± 0.21 kcal/mol
3,SAGGSADSVTFTDPNVEEQIVIPPYVIFKYPDGSVRIIAFDDGDKAEILEEIPFVPPLEPLHPDLESAGGSA [r15_393_TrMRF],0.84 ± 0.03 kcal/mol
4,SAGGSAGGSKEFKVEEVGGRLYITFPDGTVVEVRFDKPVTFDLKTGKLYFPEGAEVEKRRLKESAGGSAGGS [r20_158_TrROS_Hall],0.0253 ± 0.24 kcal/mol
5,SGSSYLPLEDVKTEWKKNPNSDVYNYTTFLQTPSGEPISVTYDPKTGKITFNLPPGTTWRPGKKSEVKLESA [r9_509_JUSTAS],0.124 ± 0.16 kcal/mol
6,SAGGSAGGSAAPVVREIEIDLPYPDGSPLTVEKVTEEPAPGTVHYEIKLPDGTVITRTVPTFSAGGSAGGSA [r18_370_JUSTAS],-0.92 ± 0.3 kcal/mol
7,SAGGSAGEIEGEEAAKLVEDALRALDPNVRVEYEPLPGEKPLLLVRVYRVDPESGAETPLATLLIGSAGGSA [r15_682_TrMRF],1.78 ± 0.05 kcal/mol
8,SAGGSAGGSAGKLPPGAKVEEVFEVEIEVTYLNPDTGEEVEKEKITVRVVKVDGKLVIEFSAGGSAGGSAGG [r11_415_TrROS_Hall],1.39 ± 0.11 kcal/mol
9,SAGGEEVKTIKVTLAFYNPETGELVAEVEATATLVDGKLVLTTTVTFRPAPAGEPVTVTVTVVEPEESAGGS [r16_327_TrROS_Hall],2.93 ± 0.39 kcal/mol
10,SAGGALILLFPHPESRTVTALFVHPDGGSETIPFPVPESIDSLEEVADRLLREARERFPVPVEVVVASAGGS [r8_166_TrMRF],0.944 ± 0.012 kcal/mol
11,SAGGSAGGSAGPRIVAFNVPNGKTIPLFAPDGWMIRINIERDPKDGEHKMETEYVPADDISAGGSAGGSAGG [r17_287_TrROS],-0.424 ± 0.37 kcal/mol
12,SAGGPRVEPLPLRVTYEDGVPPREVTVPLLAVTALDPETGEPVTFVNPGSLEVLAALLPPSVVSFDFSAGGS [r16_522_TrMRF],0.714 ± 0.012 kcal/mol
13,SAGKRMPVEEIANELAKEFPPGQTREVPIRNEDGGEWITLTVYHPNGKPVWKITIRPDGEIEVEWVPLSAGG [r19_0_TrROS],0.889 ± 0.042 kcal/mol
14,SAGGSVPERAKVVTLVLRFEEPESLGIPLLERLLRELGFPDAVLGEVRIEPLPDGSVVAVVPLLVPSAGGSA [r2_346_TrMRF],2.42 ± 0.041 kcal/mol
15,SAGGSAGGSAGGASLKVVEREVEYYDPETGETVRVKALVTVDPNSDKEILDPEEKEKLLSSAGGSAGGSAGG [r7_557_JUSTAS],1.02 ± 0.034 kcal/mol
16,SAGGEVLVIELSLEELKNLKPNQTVKIKLPDGSELEVRVEEVDGRLYLFVRNKENPEEVELIEEITIESAGG [r13_745_TrROS_Hall],2.79 ± 0.062 kcal/mol
17,SAGSVETFEDPEVGRVVIVPLPGGEVLTIELPPDSITMTLTSPKGGESVTITKKMKPGEEEELIKELASSAG [r5_820_JUSTAS],-0.521 ± 0.47 kcal/mol
18,SPKVTLTLEGKVITFPAPLAEKLLGELQRKGYKVKILSVEPDPETDEIYLVMEVEPLKPPPLPPPNPLLESA [r9_448_TrMRF],1.16 ± 0.14 kcal/mol
19,SAGGSAGGSMPVKRELIITVTEPSSGTTRTLVVEVETEEEAEAVVAAVAAVPDRTVTEVRRLASAGGSAGGS [r12_152_JUSTAS],0.109 ± 0.083 kcal/mol
20,SAGGGMTPVKKEYVVTLPVPPGMTEEEARELAERAAEELRPELEAKGLAYEVTFELSPEGLVTVTVVASAGG [r13_529_JUSTAS],2.19 ± 0.042 kcal/mol
21,SAGGSAGGDEKAKEELKKKKPPKIELTVKVEVEVSEDGTVKVKAKVFGPDGKLIAEAEFTFKVKSAGGSAGG [r6_419_TrROS_Hall],1.67 ± 0.19 kcal/mol
